This data set is described as follows: yeast display, Sf9 membrane polyspecificity reagent, FACS + sequencing; frameworks hold sequencing errors. Summed up:
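Galactose-induced (36–48 hours) yeast carrying a synthetic nanobody display library were exposed to 10% biotinylated, detergent-solubilized Sf9 membrane reagent at 4 °C for 1 hour. FACS followed streptavidin microbead enrichment, using low and high (top ~1%) gates for expression (anti-HA) and reagent binding (streptavidin). Colony PCR, MiSeq 2 × 250 sequencing and CDR-length filtering followed. Labels for polyreactivity reflect the gate of origin.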
With “QVQLVESGGGLVQAGGSLRLSCAASGSIFSWYTMGWYRQAPGKERELVARITTSGGTSTYYADSVKGRFTISRDNAKNTVYLQMNSLKPEDTAVYYCAADSPTSLYEYWGQGTQVTVSS”, the “polyreactivity (PSR sort gate)” value is reported as “high polyreactivity”.

As for “QVQLVESGGGLVQAGGSLRLSCAASGSIFSYNGKGWYRQAPGKERELVATISASSVTTYYADSVKGRFTISRDNAKNTVYLQMNSLKPEDTAVYYCARDAYSVYYYVFLHWEYDYWGQGTQVTVSS”, the “polyreactivity (PSR sort gate)” value is “high polyreactivity”.

“QVQLVESGGGLVQAGGSLRLSCAASGSIFSYYAMGWSRQAPGKERELVAAIRRGGSTNYADSVKGRFTISRDNAKNTVYLQMNSLKPEDTAVYYCAASLGWRPSFSYYWGQGTQVTVSS”: the “polyreactivity (PSR sort gate)” value was “high polyreactivity”.

“QVQLVESGGGLVQAGGSLRLSCAASGSIFSYYAMGWYRPAPGKERELVAAISKRGPSTYYADSVKGRFTISRDNAKNSVYLLMNSLKPEDTAVYYCAAKYSRRSSVSYYYWGQGTQVTVSS”: the “polyreactivity (PSR sort gate)” value was “high polyreactivity”.

For the sequence “QVQLVESGGGLVQAGGSLRLSCAASGSIFSYYAMGWYRQAPGKEREFVAAITKSGGSTYYADSVKGRFTISRDNAKNTVYLQMNSLKPEDTAVYYCAADEGGFWWTYPYDSWGQGTQVTVSS”, the “polyreactivity (PSR sort gate)” value is “low polyreactivity”.

Regarding “QVQLVESGGGLVQAGGSLRLSCAASGSIFSYYAMGWYRQAPGKEREFVAAITKSGGSTYYADSVKGRFTISRDNAKNTVYLQMNSLKPEDTAVYYCAVRYKLYYYGYDYWGQGTQVTVSS”, the “polyreactivity (PSR sort gate)” value is on record as “low polyreactivity”.

Turning to “QVQLVESGGGLVQAGGSLRLSCAASGSIFSYYAMGWYRQAPGKERELVAAISYSGSDTYYADSVKGRFTISRDNAKNTVYLQMNSLKPEDTAVYYCAAEDPSYSYDYWGQGTQVTVSS”, the “polyreactivity (PSR sort gate)” value was “low polyreactivity”.

On to “QVQLVESGGGLVQAGGSLRLSCAASGSIFSYYAMGWYRQAPGKERELVAAITRGGTTYYADSVKGRFTISRDNAKNTVYLQRNSLKPEDTAVYYCAASDYYGEYEYWGQGTQVTVSS”, for which the “polyreactivity (PSR sort gate)” value is “high polyreactivity”.

On to “QVQLVESGGGLVQAGGSLRLSCAASGSIFSYYAMGWYRQAPGKERELVAGITWSGGRTYYADSVKGRFTISRDHAQNTVYLQMNSLKPEDTAVYYCAAVQWFSRRSRYDYWGQGTQVTVSS”, for which the “polyreactivity (PSR sort gate)” value is on record as “high polyreactivity”.

As for “QVQLVESGGGLVQAGGSLRLSCAASGSIFSYYAMGWYRQAPGKERELVATISSVGSTNYADSVKGRFTISRDNPKNTVYLQMNSLKPEDTAVYYCAATIGHNGFDYWGQGTQVTVSS”, the “polyreactivity (PSR sort gate)” value is on record as “low polyreactivity”.

Regarding “QVQLVESGGGLVQAGGSLRLSCAASGSIFSYYAMGWYRQAPGKERELVATISWSGGSTYYADSVKGRFTISRDNAKNTVYLQMNSLKPEDTAVYYCAARKYGQRYRRDYWGQGTQVTVSS”, the “polyreactivity (PSR sort gate)” value is “low polyreactivity”.

As to “QVQLVESGGGLVQAGGSLRLSCAASGSIFSYYAMGWYRQAPGKERELVSANTSGDGTNYADSVKGRFTISRDNAKNTVYLQMNILKPDDTAVYYCAADAVDSYWREDYWGQGTQVTVSS”, the “polyreactivity (PSR sort gate)” value is “low polyreactivity”.

In the case of “QVQLVESGGGLVQAGGSLRLSCAASGSIFSYYDMGWYRQAPGKERELVASISSGGSTYYADSVKGRFTISRDNAKNTVYLQMNSLKPEDTAVYYFGAVSRWLYWEDVYWGQGTQVTVSS”, the “polyreactivity (PSR sort gate)” value is “low polyreactivity”.

As to “QVQLVESGGGLVQAGGSLRLSCAASGSIFSYYVMGWYRQAPGKERELVAAITRSGGSTYYADSVKGRFTISRDNAKNTVYLQMNRLKPEDTAVYYCAATYSHRRGDYWGQGTQVTVSS”, the “polyreactivity (PSR sort gate)” value is “high polyreactivity”.

For the sequence “QVQLVESGGGLVQAGGSLRLSCAASGSIFSYYVMGWYRQAPGKERELVARINWSSTSTYYADSVKGRFTISRDNAKNTVYLQMNSLKPEDTAVYYCAAAKRYGRYYEYDYWGQGTQVTVSS”, the “polyreactivity (PSR sort gate)” value is “high polyreactivity”.

On to “QVQLVESGGGLVQAGGSLRLSCAASGSIFTAYARGWYRQAPGKERELVAAISRSGGRTYYADSVKGRFTISRDNPKKTVYLQMNSLKPEDTAVYYCAARRRRYIANLYNYWGQGTQVTVSS”, for which the “polyreactivity (PSR sort gate)” value was “high polyreactivity”.

In the case of “QVQLVESGGGLVQAGGSLRLSCAASGSIFTAYDMGWYRQAPGKERELVAAINVSAGTTYYADSVKGRFTISRDNAKNTVYLQMNSLKPEDTAVYYCAATFGGWGYVYVHYYYWGQGTQVTVSS”, the “polyreactivity (PSR sort gate)” value is “high polyreactivity”.

As to “QVQLVESGGGLVQAGGSLRLSCAASGSIFTAYTMGWYRQAPGKERELVAAITERGGSTYYADSVKGRFTISRDNAKNTVYLQMNSMKPEDTAVYYCAASTLKDIYLWFRVDYWGQGTQVTVSS”, the “polyreactivity (PSR sort gate)” value is “low polyreactivity”.

For the sequence “QVQLVESGGGLVQAGGSLRLSCAASGSIFTDNVMGWYRQAPGKERELVAAITYSAASTYYADSVKGRFTISRDNAKNTVYLQMNSLKPEDTAVYYCATEYYIGVNYRGDYWGQGTQVTVSS”, the “polyreactivity (PSR sort gate)” value is listed as “low polyreactivity”.

Take “QVQLVESGGGLVQAGGSLRLSCAASGSIFTEYVMGWYRQAPGKERELVAAAITRGGSTNYADSVKGRFTISRDNAKNSVYLQMYCLKPEDTAVYYCNKDVWPVSRQLYTGKYDSWGQGTQVTVSS”: the “polyreactivity (PSR sort gate)” value was “low polyreactivity”.

On to “QVQLVESGGGLVQAGGSLRLSCAASGSIFTFYAMGWYRQAPGKERELVATITISTGSTYYADSVKGRFTISRDNAKNTVYLQMNCLKPEDTAVYYCAARRRSAEYNYWGQGTQVTVSS”, for which the “polyreactivity (PSR sort gate)” value is “high polyreactivity”.

On to “QVQLVESGGGLVQAGGSLRLSCAASGSIFTHNAMGWYRQAPGKERVLVAAISSGGSTNYADSVKGRFTISRDNAKNTVYLQMNSLKPEDTAVYYCAKSIDGWYWRRRRYDYWVQGTQVTVSS”, for which the “polyreactivity (PSR sort gate)” value is “low polyreactivity”.

As for “QVQLVESGGGLVQAGGSLRLSCAASGSIFTIYAMGWYRQAPGKERELVAAITWSGGSTYYADSVKGRFTISRDNAKNTVYLQMNSLKPEDTAVYYCAAKYYGEMYYWGQGTQVTVSS”, the “polyreactivity (PSR sort gate)” value is given as “low polyreactivity”.

As for “QVQLVESGGGLVQAGGSLRLSCAASGSIFTKYAMGWYRQAPGKERELVAGISRTTGSTYYADSVKGRFTISRDNAKNTVYLQMNSLKPEDTAVSYCNAVYGHGNYFRSEDDYWGQGTQVTVSS”, the “polyreactivity (PSR sort gate)” value was “high polyreactivity”.

As to “QVQLVESGGGLVQAGGSLRLSCAASGSIFTLNAMGWYRQAPGKEREFVAAITWSGGSTYYADSVKGRFTISRDNAKNTVYLQMNSLKPEDTAVYYCNVEPVDRWYYKYDYWGQGTQVTVSS”, the “polyreactivity (PSR sort gate)” value was “low polyreactivity”.

Regarding “QVQLVESGGGLVQAGGSLRLSCAASGSIFTLYAMGWNRQAPGQERELVAAITRSGGSTYYADSVKGRFTSSRDNAKNTVYLQMNSLKPEDTAVYYCAADKAPYSTEGDYWGQGTQVTVSS”, the “polyreactivity (PSR sort gate)” value is “high polyreactivity”.

Turning to “QVQLVESGGGLVQAGGSLRLSCAASGSIFTLYARGWYREAPGKERELVAAITWTGGSTYYADSVKGRFTISRDNAKNTVYLQMNSLKPEDTAVYYCATDAYWQSNGAFYYVARHGGYWGQGTQVTVSS”, the “polyreactivity (PSR sort gate)” value was “low polyreactivity”.

In the case of “QVQLVESGGGLVQAGGSLRLSCAASGSIFTNNAMGWYRQAPGKERELVAGISFRGSSTYADSVKGRFTISRDNAKNTVYLQMNSLKPEDTAVYYCAAEWFDLEDDYWGQGTQVTVSS”, the “polyreactivity (PSR sort gate)” value is “low polyreactivity”.

With “QVQLVESGGGLVQAGGSLRLSCAASGSIFTPNAMGGYRQAPGKERELVAAISSSSDRTYYADSVKGRFTISRDNAKNTVYLQMNSLKPEDTAVYYCAAYAQQRYYWGQGTQVTVSS”, the “polyreactivity (PSR sort gate)” value was “high polyreactivity”.

Take “QVQLVESGGGLVQAGGSLRLSCAASGSIFTPNAMGWYRQAPGKERELVAAISSSSDRTSYADSVKGRFTISRDNAKYTVYLQMNSLKPEDTAVYYCAAYSQKRYYWGQGTQVTVSS”: the “polyreactivity (PSR sort gate)” value was “high polyreactivity”.
